From patent publication US20220073608A1 come the findings set out here.

In experiment [1] the target is hSEMA4D ECD-His (His-tagged human SEMA4D protein extracellular domain, Met22-Arg734) (human) (UniProt Q92854). The experiment is described as follows: ELISA, coated hSEMA4D ECD-His; Ab 0.533 nM.
Experiment [2] has the same target. The experiment is described as follows: ELISA, coated hSEMA4D ECD-His; Ab 0.00085 nM.
The target is the same in experiment [3]. The experiment is described as follows: ELISA, coated hSEMA4D ECD-His; Ab 0.107 nM. (In general: In an ELISA, binding on a coated surface is turned into a signal by an enzyme label.)
Experiment [4] shares this target. The experiment is described as follows: ELISA, coated hSEMA4D ECD-His; Ab 0.0213 nM.
For experiment [5] the target is unchanged. The experiment is described as follows: ELISA, coated hSEMA4D ECD-His; Ab 13.3 nM.
Experiment [6] shares this target. The experiment is described as follows: ELISA, coated hSEMA4D ECD-His; Ab 2.67 nM.
For experiment [7] the target is unchanged. The experiment is described as follows: ELISA, coated hSEMA4D ECD-His; Ab 0.000085 nM.
For experiment [8] the target is unchanged. The experiment is described as follows: ELISA, coated hSEMA4D ECD-His; Ab 1.33 nM.
Experiment [9] addresses T1, human SEMA4D, full length, on CHO-K1 cells (CHO-K1 hSEMA4D) (human) (UniProt Q92854).
T1 sequence (looked up): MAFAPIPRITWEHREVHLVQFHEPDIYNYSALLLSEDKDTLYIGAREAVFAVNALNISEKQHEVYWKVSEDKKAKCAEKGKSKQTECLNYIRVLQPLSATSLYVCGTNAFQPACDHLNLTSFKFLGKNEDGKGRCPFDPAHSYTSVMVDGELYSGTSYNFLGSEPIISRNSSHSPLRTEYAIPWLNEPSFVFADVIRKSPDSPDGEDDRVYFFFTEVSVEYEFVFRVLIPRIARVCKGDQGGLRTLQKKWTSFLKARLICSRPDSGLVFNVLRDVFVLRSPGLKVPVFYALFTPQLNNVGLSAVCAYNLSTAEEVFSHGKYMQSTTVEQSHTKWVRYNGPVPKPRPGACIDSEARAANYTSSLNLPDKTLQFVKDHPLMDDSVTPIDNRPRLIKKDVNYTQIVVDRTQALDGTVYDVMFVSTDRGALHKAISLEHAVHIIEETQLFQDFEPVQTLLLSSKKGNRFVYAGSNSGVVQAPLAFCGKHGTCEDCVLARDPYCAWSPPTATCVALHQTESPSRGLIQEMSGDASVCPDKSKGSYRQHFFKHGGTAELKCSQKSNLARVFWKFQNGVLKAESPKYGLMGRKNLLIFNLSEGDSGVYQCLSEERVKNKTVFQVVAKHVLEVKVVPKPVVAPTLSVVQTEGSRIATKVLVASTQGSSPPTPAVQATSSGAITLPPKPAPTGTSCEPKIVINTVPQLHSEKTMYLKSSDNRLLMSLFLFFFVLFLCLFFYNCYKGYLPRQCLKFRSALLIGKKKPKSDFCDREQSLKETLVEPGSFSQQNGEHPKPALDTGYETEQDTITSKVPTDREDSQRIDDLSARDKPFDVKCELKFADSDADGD
The experiment is described as follows: FACS, CHO-K1 hSEMA4D cells; Ab 66.7 nM. For orientation: A flow cytometer gives signals particle by particle.

Experiment [10] has as its target hSEMA4D ECD-His (His-tagged human SEMA4D protein extracellular domain, Met22-Arg734) (human) (UniProt Q92854). The experiment is described as follows: ELISA, coated hSEMA4D ECD-His; Ab 0.00213 nM.
The target in experiment [11] is monkey SEMA4D, full length, on CHO-K1 cells (CHO-K1 cSEMA4D) (monkey). The experiment is described as follows: FACS, CHO-K1 cSEMA4D cells; Ab 66.7 nM.
Experiment [12] addresses hSEMA4D ECD-His (His-tagged human SEMA4D protein extracellular domain, Met22-Arg734) (human) (UniProt Q92854). The experiment is described as follows: ELISA, coated hSEMA4D ECD-His; Ab 0.0533 nM.
Experiment [13] shares this target. The experiment is described as follows: ELISA, coated hSEMA4D ECD-His; Ab 0.00427 nM.
The target is the same in experiment [14]. The experiment is described as follows: ELISA, coated hSEMA4D ECD-His; Ab 0.267 nM.
Experiment [15] has the same target. The experiment is described as follows: ELISA, coated hSEMA4D ECD-His; Ab 6.67 nM.
Experiment [16] has the same target. The experiment is described as follows: ELISA, coated hSEMA4D ECD-His; Ab 0.0107 nM.

Regarding Human IgG control (antibody), the OD450 nm is 0.0748 in experiment [1]; 0.0781 in [2]; 0.0717 in [3]; 0.0714 in [4]; 0.0766 in [5]; 0.074 in [6].

For Mouse IgG control (antibody), the OD450 nm in [7] came to 0.0686; in experiment [8], 0.264; in experiment [10], 0.0718; in experiment [12] it was 0.0805; in [13], 0.0789; in [14], 0.0791. For the same substance, the OD450 nm in experiment [15] was 0.533; in [16] it was 0.0814. Besides, the values for the MFI in [9] and in [11] were 214 and 339, respectively.
